Laboratory results as given in patent US20260125457A1 (Janssen / Centocor, published 2026).

Tests used:
[1] = target: T1, CD3EG-HSA-6xHis (CD3W220.002) (human, UniProt P07766 22-118; P09693 23-103); assay: SPR, forced degradation: Metal Ox
T1 construct: also called human CD3; not shown: human serum albumin (HSA); 6xHis tag

[2] = target: T2, Flag/6xhis-CALRdel52 (CALRW12.007) (human, UniProt P27797 18-417); assay: SPR, forced degradation: Metal Ox
T2 construct: also called human CALRdel52
T2 sequence (looked up): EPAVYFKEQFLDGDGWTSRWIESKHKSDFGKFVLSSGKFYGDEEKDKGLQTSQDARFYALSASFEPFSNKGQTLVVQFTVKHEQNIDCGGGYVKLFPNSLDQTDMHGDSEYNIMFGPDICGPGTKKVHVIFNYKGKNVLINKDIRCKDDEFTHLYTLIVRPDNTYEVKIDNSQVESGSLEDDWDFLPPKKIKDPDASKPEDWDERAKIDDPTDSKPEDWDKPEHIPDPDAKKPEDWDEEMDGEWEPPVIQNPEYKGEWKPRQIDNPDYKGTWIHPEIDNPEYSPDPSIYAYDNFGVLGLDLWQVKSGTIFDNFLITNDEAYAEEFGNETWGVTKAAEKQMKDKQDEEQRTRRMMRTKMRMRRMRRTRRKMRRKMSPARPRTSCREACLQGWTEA

[3] = target: T3, Avi/his-CalR-Ins5 (CALRW28.004) (human, UniProt P27797 18-417, limits assumed); assay: SPR, forced degradation: Metal Ox
T3 construct: also called human CALRins5
T3 sequence (looked up): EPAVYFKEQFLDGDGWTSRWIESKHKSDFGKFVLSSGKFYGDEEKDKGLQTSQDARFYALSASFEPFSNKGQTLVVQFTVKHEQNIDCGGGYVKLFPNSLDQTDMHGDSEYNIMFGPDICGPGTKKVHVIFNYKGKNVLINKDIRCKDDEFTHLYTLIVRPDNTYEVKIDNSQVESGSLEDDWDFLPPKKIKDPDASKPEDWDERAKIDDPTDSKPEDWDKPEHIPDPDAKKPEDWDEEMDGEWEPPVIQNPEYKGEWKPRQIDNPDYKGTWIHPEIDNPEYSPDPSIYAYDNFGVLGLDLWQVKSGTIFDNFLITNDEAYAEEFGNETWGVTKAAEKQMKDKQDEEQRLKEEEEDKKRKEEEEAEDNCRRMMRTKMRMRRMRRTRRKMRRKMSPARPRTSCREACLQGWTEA

[4] = target: T4, CALRdel52 (mutant calreticulin, 52 base pair deletion, Type 1) expressed with MPL on engineered cancer cells (UniProt P27797 18-417); assay: cell-based or functional assay
T4 sequence (looked up): T2 sequence (looked up)

[5] = target: T4, CALRdel52 (mutant calreticulin, 52 base …); assay: cell-based or functional assay; remark: listed apart in the source
[6] = target: T5, CALRins5 (mutant calreticulin, 5 base pair insertion, Type 2) expressed with MPL on engineered cancer cells (UniProt P27797 18-417); assay: cell-based or functional assay
T5 sequence (looked up): T3 sequence (looked up)

[7] = target: T1, CD3EG-HSA-6xHis (CD3W220.002); assay: SPR, forced degradation: pH 8.5
[8] = target: T2, Flag/6xhis-CALRdel52 (CALRW12.007); assay: SPR, forced degradation: pH 8.5
[9] = target: T3, Avi/his-CalR-Ins5 (CALRW28.004); assay: SPR, forced degradation: pH 8.5
[10] = target: T5, CALRins5 (mutant calreticulin, 5 base …); assay: flow cytometry on ELF-153 MPL CALRins5 cells, 1 h at 37 C, AF647 secondary antibody, Geometric Mean
Protocol: FIGS. 21A-21F depict binding of different CALRmutxCD3 bispecific antibodies to CALRmut-negative or CALRmut-positive cells. Flow cytometry was used to evaluate CALRmutxCD3 binding to CALRmut-negative and CALRmut-positive cancer cells in vitro. CALRmutxCD3 antibodies were tested on a panel of cell lines, engineered to express MPL and CALRmut, after 1 hour 37° C. incubation, with subsequent incubation with secondary AF647-labeled antibody. Geometric mean fluorescence intensity of AF647 was measured to determine antibody binding.

[11] = target: T1, CD3EG-HSA-6xHis (CD3W220.002); assay: SPR, forced degradation: Physiological
[12] = target: T2, Flag/6xhis-CALRdel52 (CALRW12.007); assay: SPR, forced degradation: Physiological
[13] = target: T3, Avi/his-CalR-Ins5 (CALRW28.004); assay: SPR, forced degradation: Physiological
[14] = target: T1, CD3EG-HSA-6xHis (CD3W220.002); assay: SPR, forced degradation: Chem Ox
[15] = target: T2, Flag/6xhis-CALRdel52 (CALRW12.007); assay: SPR, forced degradation: Chem Ox
[16] = target: T3, Avi/his-CalR-Ins5 (CALRW28.004); assay: SPR, forced degradation: Chem Ox

T1 sequence (P07766 other isoform, or with tags, fused parts or gaps): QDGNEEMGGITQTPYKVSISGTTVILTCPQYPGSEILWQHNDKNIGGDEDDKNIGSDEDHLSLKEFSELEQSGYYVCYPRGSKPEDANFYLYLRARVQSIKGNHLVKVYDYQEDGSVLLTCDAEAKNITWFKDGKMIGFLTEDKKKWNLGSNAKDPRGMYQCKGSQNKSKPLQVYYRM

B1: C3CRB73 CALRmut x CD3 bispecific antibody (bispecific antibody, human IgG1, kappa, L234A L235A)
heavy: EVQLLESGGGLVQPGGSLRLSCAVSGIDLSNNAISWVRQAPGKGLEYVGVIGNTGDTYYADSAKGRFTISRDSSKTTLYLQMNSLRAEDTAVYFCVRGPPSYSSSVKNIWGQGTLVTVSSASTKGPSVFPLAPSSKSTSGGTAALGCLVKDYFPEPVTVSWNSGALTSGVHTFPAVLQSSGLYSLSSVVTVPSSSLGTQTYICNVNHKPSNTKVDKKVEPKSCDKTHTCPPCPAPEAAGGPSVFLFPPKPKDTLMISRTPEVTCVVVSVSHEDPEVKFNWYVDGVEVHNAKTKPREEQYNSTYRVVSVLTVLHQDWLNGKEYKCKVSNKALPAPIEKTISKAKGQPREPQVYTLPPSREEMTKNQVSLSCAVKGFYPSDIAVEWESNGQPENNYKTTPPVLDSDGSFFLVSKLTVDKSRWQQGNVFSCSVMHEALHNRFTQKSLSLSPGK
light: DIQMTQSPSSVSASVGDRVTITCQSSQSVYNNNWLSWLQQKPGKAPKRLIYDASKLESGVPSRFSGSGSGTDFTLTISSVQPEDAATYYCAGGFTGNVYTFGGGTKVEIKRTVAAPSVFIFPPSDEQLKSGTASVVCLLNNFYPREAKVQWKVDNALQSGNSQESVTEQDSKDSTYSLSSTLTLSKADYEKHKVYACEVTHQGLSSPVTKSFNRGEC
scFv: DIQMTQSPSSLSASVGDRVTITCRARQSIGTAIHWYQQKPGCAPKLLIKYASESISGVPSRFSGSGSGTDFTLTISSLQPEDFATYYCQQSGSWPYTFGQGTKLEIKGGGSGGSGGCPPCGGSGGEVQLVESGGGLVKPGGSLRLSCAASGFTFSRYNMNWVRQAPGKGLEWVSSISTSSNYIYYADSVKGRFTFSRDNAKNSLDLQMSGLRAEDTAIYYCTRGWGPFDYWGCGTLVTVSSEPKSSDKTHTCPPCPAPEAAGGPSVFLFPPKPKDTLMISRTPEVTCVVVSVSHEDPEVKFNWYVDGVEVHNAKTKPREEQYNSTYRVVSVLTVLHQDWLNGKEYKCKVSNKALPAPIEKTISKAKGQPREPQVYTLPPSREEMTKNQVSLWCLVKGFYPSDIAVEWESNGQPENNYKTTPPVLDSDGSFFLYSKLTVDKSRWQQGNVFSCSVMHEALHNHYTQKSLSLSPGK
notes: IgG1-AAS; also called JNJ-88549968; CALRB421 Fab x CD3 spFv
% Active [1]: 91%
Kd [1]: 272 pM
% Active [2]: 97%
Kd [2]: 63 pM
% Active [3]: 94%
Kd [3]: 35.6 pM
T cell-mediated cytotoxicity EC50 (nM), ELF-153 MPL CALRdel52 [4]: 0.034 nM
T cell-mediated cytotoxicity EC50 (nM), OCI-M2 MPL CALRdel52 [4]: 0.61 nM
cytotoxicity EC50 (nM), whole blood of CALRmut MPN patients, ELF-153 MPL CALRdel52 [5]: 0.66 nM
cytotoxicity EC50 (nM), whole blood of healthy donors, ELF-153 MPL CALRdel52 [5]: 0.51 nM
cytotoxicity EC50 (nM), whole blood of CALRmut MPN patients, ELF-153 MPL CALRins5 [6]: 0.64 nM
cytotoxicity EC50 (nM), whole blood of healthy donors, ELF-153 MPL CALRins5 [6]: 0.32 nM
% Active [7]: 93%
Kd [7]: 280 pM
% Active [8]: 104%
Kd [8]: 251 pM
% Active [9]: 97%
Kd [9]: 31.3 pM
EC50 (read off the curve) [10]: ~2000 pM
% Active [11]: 96%
Kd [11]: 301 pM
% Active [12]: 98%
Kd [12]: 17.1 pM
% Active [13]: 99%
Kd [13]: 62.2 pM
% Active [14]: 95%
Kd [14]: 306 pM
% Active [15]: 94%
Kd [15]: 70 pM
% Active [16]: 94%
Kd [16]: 40.8 pM
